According to the Human Domainome abundance scans (Beltran et al. 2025):

B1: Zinc finger MYM-type protein 6, residues 427 to 504; numbered along this chain, O95789 (parent)
chain: KLKCQHCNHLFATKPELLFYKGKMFLFCGKNCSDEYKKKNKVVAMCDYCKLQKIIKETVRFSGVDKPFCSEVCKFLSA

Variants of: B1
Test: abundance fitness (aPCA) (normalised: wild type 0, dead -1); higher = more abundant; growth selection in yeast, the domain comes from the species named
Details: Homo sapiens

Abundance fitness, by site and new letter:
F11: G -0.171; M -0.134; L -0.129; W -0.207; C -0.098; T 0.014; K -0.13; I -0.25; R -0.198; P -0.049; H -0.354; V 0.031; S -0.094; D -0.339
K21: Y -0.099; E 0.008; D -0.004; Q -0.03; H -0.018; W -0.133; V -0.155; M -0.031; F -0.03; N -0.03; S 0.012; G 0.019; R -0.025; A 0.001; C -0.036; L -0.007
M24: G -0.059; Y -0.249; T 0.118; A -0.083; R 0.13; S 0.012; W -0.065; Q 0.101; I 0.19; C -0.004; D 0; E 0.111; V -0.172; P 0.034; L -0.109
Y20: C -0.023; F 0.054; M -0.062; N -0.059; L 0; D -0.033; G -0.078; Q -0.01; R -0.121; I 0.031; A 0.031; K -0.123; H -0.079; T 0.019
F19: I -0.152; S 0.033; K 0.182; W -0.005; G -0.053; D 0.126; P 0.101; T -0.03; A 0.057; R 0.103; M -0.196; E 0.129; Q 0.081
Q5: V -0.077; L -0.118; Y -0.057; D -0.405; E -0.33; T -0.113; W -0.206; R -0.226; A -0.023; P -0.204; S -0.248; K -0.194; I -0.156; G -0.041
C4: P -0.681; A -0.74; S -0.702; L -0.698; R -0.877; W -1.11; M -1.05; D -0.879; G -0.772; H -0.649; E -0.81; K -0.687; V -0.758
H6: W -0.102; C -0.046; M 0.033; V -0.074; S -0.085; Q -0.098; D -0.1; G -0.04; A -0.043; I -0.154; P -0.993; E 0.008; K -0.46; L -0.104; R -0.03; F -0.14; T -0.079
K23: M -0.041; F -0.15; I -0.129; G -0.067; Q -0.097; A -0.045; H -0.048; S -0.058; T -0.036; E 0.062; W -0.419; D -0.09; N -0.001; L -0.067; C -0.172; V -0.091
L26: E 0.118; A 0.05; D -0.066; C 0.004
C7: V -1.11; W -0.919; I -1.02; N -0.23; T -0.792; H -0.575; L -0.951; M -0.76; Q -0.887; P -1.07; K -0.451; F -0.845; E -0.722; S -0.823; G -0.442
G22: W -0.226; P -0.33; E 0.049; C -0.063; V -0.255; A -0.065; L -0.231; Q -0.011; D -0.215; F -0.254; T -0.054; M -0.118; S -0.049
L10: Q 0.023; Y -0.026; D -0.002; G 0.049; C -0.05; R 0.063; S -0.066; K 0.017; I -0.135; P 0.034; A 0.051; T -0.085; E 0.063; V -0.002; W 0.004; F 0.107
L18: V -0.02; W -0.019; G -0.033; P -0.307; T -0.081; Q -0.042; K -0.059; I -0.159; R -0.077; C -0.113; A -0.031
H9: V 0.032; K 0.034; Q 0.049; P -0.69; S -0.032; G 0.014; N -0.011; A 0.005; F -0.153; T 0.042; R 0.037; E -0.028; C -0.085; Y 0.015; W -0.069; M 0.022
T13: G -0.024; N -0.128; W -0.162; A -0.074; L -0.176; Y -0.029; H -0.039; C -0.201; K -0.056; V -0.098; R -0.087; P -0.128; D -0.146; I 0.031; E -0.06; Q -0.093; S -0.148
F25: P -0.17; G -0.028; E -0.049; A 0.033; K -0.067; L 0.043; C -0.004; I -0.126; D -0.031; S -0.036; M 0.048; V -0.009; H -0.109; W -0.027
A12: W -0.134; H -0.132; P -0.131; M -0.105; N -0.218; Y -0.205; F -0.181; V -0.223; C -0.096; K 0.008; T -0.056; D -0.047; I 0.062; S -0.072
K3: Y -0.132
N8: Q 0.044; M -0.009; V -0.088; T -0.067; I -0.168; H -0.117; K 0.01; Y -0.264; E 0.018; L -0.015; P -0.129; F -0.172; W -0.154; R -0.02; C -0.015; A 0.013; S 0.042
K14: N -0.1; M -0.287; Q -0.126; E -0.053; W -0.408; S -0.085; C -0.243; L -0.101; Y -0.492; F -0.298; T -0.032; P -0.182; R -0.104; D -0.081; V -0.141
E16: G -0.279; W -0.13; D -0.169; P -0.414; V -0.109; R -0.102; H -0.307; A -0.091; T -0.037; M -0.14; K 0.002; C -0.102; Q -0.03; N -0.26; Y -0.194; S -0.146; L -0.139
L17: C -0.011; P 0.024; T 0.086; Q 0.156; A -0.003; S 0.117; D -0.044; M 0.061; W 0.065; G -0.042; N 0.19; F -0.168; E 0.166; K 0.102; Y -0.081
P15: W -0.534; G -0.163; M -0.335; I -0.412; R -0.119; Y -0.651; Q -0.126; S -0.119; V -0.37; F -0.478; H -0.213; T -0.132; D -0.03; E -0.083; K -0.038; A -0.075; L -0.483
